Changes are numbered by the printed parent chain.
B1: ADI-19485 (antibody, V domains shown)
VH: QVQLQESGPGLVKPSQTLSLSCTVSGGSISSTNYYWTWIRQHPGKGLEWIGFIYNRGSTYYNPSLTSRVTISVDTSKNQFSLKLTSVTAADTAVYYCARAPYYYDRNGYYTAFDIWGQGTTVTVSS
VL: EIVLTQSPATLSVSPGERATLSCRASQSVSSNLAWYQQKPGQAPRLLIYDASTRATDIPARFSGGGSGTEFTLTISSLQSEDFAVYYCQQYNNWPRTFGLGTKVDIK
notes: full-length IgG
B2: ADI-14384 (antibody, V domains shown)
VH: QVQLQESGSGLVKPSQTLSLTCTVSGGSISSVGYSWSWIRQPPGKGLEWIGYIYHSGSPYYSPSLNSRVTISVDRSKNQFSLKLSSVTAADTAVYFCARVFFGGGGAFDIWGQGTTVTVSS
VL: QPGLTQPPSVSVAPGQTARITCGGNNIGSKSVQWYQQKPGQAPVLVMYYDSDRPSGIPDRFSGSSSGNTATLTITRVEAGDEADYSCQVWDSVNVHPVIFGGGTKLTVL
notes: full-length IgG; also called Ab 52
B3: ADI-24808 (antibody, V domains shown)
VH: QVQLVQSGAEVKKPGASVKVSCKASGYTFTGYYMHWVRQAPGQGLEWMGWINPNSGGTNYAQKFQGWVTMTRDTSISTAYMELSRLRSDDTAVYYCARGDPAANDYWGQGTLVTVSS
VL: QPVLTQPPSASGSPGQSVTISCTGTSSDVGGYNYVSWYQQHPGKAPKLMIYEVSKRPSGVPDRFSGSKSGNTASLTVSGLQAEDEADYYCSSYAGSNNVVFGGGTKLTVL
notes: full-length IgG
B4: ADI-24851 (antibody, V domains shown)
VH: not shown
VL: B3 VL with P2S, T5I
notes: full-length IgG
B5: ADI-14381 (antibody, V domains shown)
VH: EVQLVESGGGLVQPGGSLRLSCAASGFTFSSYSMNWVRQAPGKGLEWVSYIGSSSSSVYYGDSAKGRFTISRDNAKNSLYLQMNSLRDEDTALYYCARVGWLQYCRGGSCYASFGMDVWGQGTTVTVSS
VL: DIQMTQSPSSLSASVGDRVTITCRASQGIRNDLGWYQQKPGIAPKLLIYAASSLQSGVPSRFSGSGSGTDFTLTISSLQPEDFATYYCLQDYDSPYTFGQGTKLEIK
notes: full-length IgG; also called Ab 49
B6: ADI-14386 (antibody, V domains shown)
VH: EVQLVESGGGLVQPGGSLRLSCAASRFTFSSYAMSWVRQAPGKGLEWVSGIGASGGTTYYADSVKGRFTISRDNSKNTVYLQMNSLRAEDTAVYYCARCEYYYGSGSAGYYFDYWGQGTLVTVSS
VL: SYELTQPPSVSVSPGQTASITCSGDKLGSKFAFWYQQKPGQSPVLVIFQDVKRPSGIPERFSGSNSGNTATLTISGTQAMDEADYYCQAWDSGTAVFGGGTKVTVL
notes: full-length IgG; also called Ab 54
B7: ADI-24818 (antibody, V domains shown)
VH: not shown
VL: QPVLTQPASVSGSPGQSITISCTGTSSDVGGYNYVSWYQQHPGKAPKLMIYDVSNRPSGVSNRFSGSKSGNTASLTISGLQAEDEADYYCSSYTSSSTLVFGGGTQLTVL
notes: full-length IgG; also called Ab 380
B8: ADI-22775 (antibody, V domains shown)
VH: EVQLLESGGGVVQPGRSLRLSCAASGFTFSDYGMHWVRQAPGKGLEWVAVIWYDGSYKYYADSVKGRFTISRDNSKNTLFLQMNSLRAEDTAVYYCARESLQTHDAFDIWGQGTMVTVSS
VL: DIQMTQSPSSLSASVGDRVTITCRASQGISNSLAWYQQKPGKAPKLLLYAASRLESGVPSRFSGSGSGTDYTLTINSLQPEDFATYFCQQYYSTLTWTFGQGTKVDIK
notes: full-length IgG
B9: ADI-14343 (antibody, V domains shown)
VH: QVQLVQSGAEVKKPGSSVKVSCKASGGTFSSYGVNWVRQAPGQGLEWMGRIIPMFGTSNYAQKFQGRVTITADGSTSTAYMELSSLRSEDTAVYYCARVGSPTTGAIMGVWGQGTTVTVSS
VL: DIVLTQTPLSLPVTPGEPASISCRSSQSLLQSNGFNYLDWYLQKPGQSPKLLIYMGSNRASGVPDRFSGSGSGTDFTLIISRVEAEDVGVYYCMQAIESPLTFGGGTKVDIK
notes: full-length IgG; also called Ab 11
B10: ADI-14348 (antibody, V domains shown)
VH: QVQLVESGGGVAQPGGSLRLSCVASGFTFSNYGMHWVRQAPGKGLEWVAFIRSDGSKKYYGDSGKGRFTISRDNSKNTLYLQMNSLRAEDTALYYCARERAGATFAFDIWGQGTTVTVSS
VL: QSALTQPRSVSGSPGQSVTISCTGTSSDVGGYNFVSWYQHHPGKAPKLMIYDVTNRPSGVPDRFSGSKSGNTASLTISGLQADDEADYYCCSYAGGFTFYVFGTGTKVTVL
notes: full-length IgG; also called Ab 16
B11: ADI-14382 (antibody, V domains shown)
VH: EVQLLESGGGVVQPGRSLRLSCAASGFTFSAYGFHWVRQAPGKGLEWVAVIWFDGNNKYYADSMKGRFIISRDNSKNTLYLQMNSLRAEDTAVYYCARDPKETGEFDYWGQGTLVTVSS
VL: QSALTQPASVSGSPGQSITISCTGTISDVGRYNYVSWYQQHPGKAPKLMIYDVTNRPSGVSNRFSGSKSGNTASLTISGLQAEDEAVYYCCSYTISSTYVFGTGTKLTVL
notes: full-length IgG; also called Ab 50
B12: ADI-14353 (antibody, V domains shown)
VH: QVQLVQSGAEVKKPGSSVKVSCKASGGTFSSYTISWVRQAPGQGLEWMGRIKPIIGIANNAQRFKGRVTITAEKSTGTAYMELSSLTSEDTAVYYCARGGYDYYGMDVWGQGTTVTVSS
VL: QSALTQPASVSGSPGQSITISCTGTSSDVGGYNYVSWHQQHPGKAPKLLIYDVSNRPSGVSNRFSGSKSGNTASLSISGLQAEDEADYYCSSFTSTSTPYVFGTGTQLTVL
notes: full-length IgG; also called Ab 21
B13: ADI-14373 (antibody, V domains shown)
VH: QVQLQQWGAGLLKPSETLSLTCAVYGGSFSGSYWSWIRQPPGKGLEWIGEINHSGSTSYNPSLKSRVTISVDTSKKQFSLKLSSMTAADTAVYYCAGGFYYDSSGSYAPHPTFDYWGQGTLVTVSS
VL: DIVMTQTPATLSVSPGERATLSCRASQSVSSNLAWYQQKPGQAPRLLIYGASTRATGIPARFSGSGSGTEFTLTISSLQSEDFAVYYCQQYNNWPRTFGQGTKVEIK
notes: full-length IgG; also called Ab 41
B14: ADI-22779 (antibody, V domains shown)
VH: QVQLQQWGAGLLKPSETLSLTCAVYGGSFSDYSWTWIRQPPGKGLEWIGEISHTGITNYNPSLKSRVNISVDTSKNQFSLKLSSVTAADTAVYYCARADAYDSSGYYVYYFDYWGQGTLVTVSS
VL: DIQVTQSPPSLSASVGDRVTITCRASQTIASYLNWYHQKPGKAPELLIYAASSLQSGVPSRFSGSGSGTAFTLTISSLQPEDFATYYCQQSYSAPPSFGQGTKVEIK
notes: full-length IgG
B15: ADI-22768 (antibody, V domains shown)
VH: EVQLVESGGGLVQPGGSLRLSCAASGFTFSSYEMNWVRQAPGKGLEWVSYISSSGSTIYYADSVKGRFTISRDNAKNSLYLQMNSLRAEDTAVYYCAKSYIYDSSGYYLYYFDYWGQGTLVTVSS
VL: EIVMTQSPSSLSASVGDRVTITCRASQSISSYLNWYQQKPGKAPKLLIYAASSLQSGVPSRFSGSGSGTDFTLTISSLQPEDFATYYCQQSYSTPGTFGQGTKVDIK
notes: full-length IgG
B16: ADI-14359 (antibody, V domains shown)
VH: QVQLVQSGPALVKPTQTLTLTCTFSGFSLSTSGMCVSWIRQPPGKALEWLARIDWDDDKYYSTSLKTRLTISKDTSKNQVVLTMTNMDPVDTATYYCARATNYDSSGYYSLYFDYWGQGTLVTVSS
VL: not shown
notes: full-length IgG; also called Ab 27
B17: ADI-14342 (antibody, V domains shown)
VH: QVTLKESGPVLVKPTETLTLTCTVSGFSLSNAKMGVSWIRQPPGKALEWLAYISSNDEKSYSTSLKSRLTISKDTSKSQVVLTMTNMDPVDTATYYCARILLYDSSGYYLWYFDLWGRGTLVTVSS
VL: DIQVTQSPSSLSASVGDRVTITCRASQRITSYLNWYQHKPGKAPKLLIFAASSLHSGVPSTFSGSGSGTDFTLTISSLQPEDFATYYCQQSYSTPWTFGQGTKVEIK
notes: full-length IgG; also called Ab 10
B18: ADI-14389 (antibody, V domains shown)
VH: EVQLVESGGGLVKPGGSLRLSCAASGFTFINAWMAWVRQAPGKGPEWVGRIKSRADGGTTDYAAPVKGRFTISRDDSKNRLFLQMDSLKTDDTAVYFCTTGVRALRFYNGMDVWGQGTTVTVSS
VL: ETTLTQSPSSLSASIGDRVTITCRAGQSISSFLNWYQQKPGKAPKLLIYAASTLQSGVPSRFSGSKSGTDFTLTISSLQPEDFATYYCQQSYHTFTFGPGTKVEIK
notes: full-length IgG; also called Ab 56
B19: ADI-14362 (antibody, V domains shown)
VH: EVQLLESGGGLVQPGGSLRLSCAASGFTFSSYAMSWVRQAPGKGLEWVSGISGSGGSTYYADSVKGRFTISRDNSKNTLYLEMNSLRAEDTAVYYCAKRYYYGSGTYTFDIWGQGTMVTVSS
VL: not shown
notes: full-length IgG; also called Ab 30
B20: ADI-41551 (antibody, V domains shown)
VH: QVQLQESGGGVVQPGGSLRLSCAASGFTFSRHWMHWVRQVPGKGLVWVSRINSDESTIDYADSVKGRFTISRDNAKNTLYLQMNSLRAEDTAVYYCVRDMVAVPGTTGGDYWGQGTLVTVSS
VL: SYELTQPPSVSVSPGQTADITCSGDKLGDKYACWYQQRAGQSPILVLYQDTRRPSGIPERFSGSNSGDTATLTISGTQAMDEADYYCQAWDSSTAWVFGGGTKLTVL
notes: also called Ab 823; Antibody Number 823
B21: ADI-41677 (antibody, V domains shown)
VH: QVTLKESGPALVKPTQTLTLTCTFSGFSLSTSRMCVSWIRQPPGKALEWLARIDWDGDIYYSTSLRTRLTISKDTSKNQVVLTMTNMDPVDTATYYCARTSIYATGGYYLYYSDYWGQGTLVTVSS
VL: EIVMTQSPSSLSASVGDRVTITCRASQSIASYVNWFQQKPGKAPKLLIYAASNVHSGVPSRFSGSGSGTGFTLTISSLQPEDSAIYYCQQSYTTPWTFGQGTKLEIK

biological target: T1, RSV postfusion F (postF), subtype A (respiratory syncytial virus subtype A, UniProt P03420 26-513); assay: BLI, IgG
T1 construct: also called Postfusion subtype A; F deltaFP

Row | Binder | Kd [nM]
1 | B1 | 0.251
2 | B2 | 0.469
3 | B3 | 10.8
4 | B4 | 20.9
5 | B5 | 0.754
6 | B6 | 1.32
7 | B7 | 6.47
8 | B8 | 30
9 | B9 | 2.94
10 | B10 | 5.66
11 | B11 | 0.846
12 | B12 | 0.26
13 | B13 | 1.06
14 | B14 | 6.2
15 | B15 | 3.41
16 | B16 | 4.11
17 | B17 | 0.495
18 | B18 | 22.9
19 | B19 | 15.7

biological target: T2, RSV prefusion F (preF), subtype B (respiratory syncytial virus subtype B); assay: BLI, IgG
T2 construct: also called Prefusion subtype B

Row | Binder | Kd [nM]
20 | B2 | 4.78
21 | B5 | 36.7
22 | B6 | 3.04
23 | B9 | 38.1
24 | B10 | 110
25 | B12 | 12.6
26 | B13 | 15.9
27 | B15 | 4.57
28 | B16 | 34.6
29 | B17 | 26.1
30 | B18 | 81.5
31 | B19 | 119

biological target: RSV F on RSV subtype A virus (mKate-RSV A2) (respiratory syncytial virus A2, UniProt P03420 26-574); assay: cell-based or functional assay

Row | Binder | Neut IC50 subtype A [µg/mL]
32 | B17 | 1.75

biological target: RSV F on RSV subtype B virus (mKate-RSV B 18537) (respiratory syncytial virus B 18537, UniProt P13843 26-574); assay: cell-based or functional assay

Row | Binder | Neut IC50 subtype B [µg/mL]
33 | B12 | 14.6
34 | B17 | 8.27

biological target: RSV F on RSV-A2 virus (Respiratory Syncytial Virus (RSV-A2), UniProt P03420 26-574); assay: cell-based or functional assay

Row | Binder | Neutralization IC50 (RSV subtype A) [µg/mL]
35 | B20 | > 25

biological target: RSV F on RSV-A2 virus (Respiratory syncytial virus, RSV-A2, UniProt P03420 26-574); assay: cell-based or functional assay

Row | Binder | Neutralization IC50 (RSV subtype A) [µg/mL]
36 | B21 | > 25

biological target: RSV prefusion F (preF), DS-Cav1 (Respiratory syncytial virus, UniProt P03420 26-513); assay: BLI, IgG on anti-human IgG sensor, 100 nM antigen

Row | Binder | Kd [nM]
37 | B21 | 1.28

biological target: RSV postfusion F (postF), F ΔFP (Respiratory syncytial virus, UniProt P03420 26-513); assay: BLI, IgG on anti-human IgG sensor, 100 nM antigen

Row | Binder | Kd [nM]
38 | B21 | 0.339

biological target: RSV prefusion F (preF), DS-Cav1 (Respiratory Syncytial Virus, UniProt P03420 26-513); assay: BLI, IgG on anti-human IgG sensor, 100 nM antigen, 1:1 fit

Row | Binder | Kd [nM]
39 | B20 | 13

biological target: RSV postfusion F (postF), F ΔFP (Respiratory Syncytial Virus, UniProt P03420 26-513); assay: as above

Row | Binder | Kd [nM]
40 | B20 | 23.8

From US20260258115A1 (MAPP BIOPHARMACEUTICAL, published 2026)
